Kd, koff and kon data for 2 molecules are collected here from PMC7018950, “A conserved strategy of chalcone isomerase-like protein to rectify promiscuous chalcone synthase specificity” (Nature Communications, 2020).

The target in test [1] is T1, His6-tagged Arabidopsis thaliana chalcone synthase (AtCHS) (Arabidopsis thaliana, UniProt P13114 1-395).
T1 construct: also called TT4; source: E. coli BL21 (pCold I), purified; not shown: His6, N-terminal, kept
T1 sequence (looked up): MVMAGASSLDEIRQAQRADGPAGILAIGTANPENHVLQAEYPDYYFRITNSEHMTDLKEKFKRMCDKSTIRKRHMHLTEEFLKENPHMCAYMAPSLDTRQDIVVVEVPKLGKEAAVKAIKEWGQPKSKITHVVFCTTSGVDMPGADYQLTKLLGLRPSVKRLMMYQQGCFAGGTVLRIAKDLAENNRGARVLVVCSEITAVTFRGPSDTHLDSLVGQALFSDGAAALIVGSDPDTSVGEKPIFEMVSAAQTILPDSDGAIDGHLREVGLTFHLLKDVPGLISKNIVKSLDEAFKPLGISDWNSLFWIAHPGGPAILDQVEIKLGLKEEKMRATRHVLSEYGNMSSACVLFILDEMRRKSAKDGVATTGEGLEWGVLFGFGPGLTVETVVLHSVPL
Description: BLI; BLItz; His6-tagged CHS immobilised on anti-His6 sensors, GST-tagged CHIL loaded (30-150 s), wash (150-270 s); 100 mM HEPES-NaOH, pH 7.5; 1:1 binding model; apparent KD. The note with it: both partners purified.

Test [2] deals with T2, glutathione S-transferase-tagged CHIL of morning glory (Ipomoea nil (morning glory)).
T2 construct: the purification of the GST fusions is not described; also called InCHIL; EFP; source: E. coli (pGEX4T-1)
Put plainly: BLI; BLItz; His6-tagged CHS immobilised on anti-His6 sensors, GST-tagged CHIL loaded; 100 mM HEPES-NaOH pH 7.5; 1:1 binding model; apparent KD. The note with it: both partners purified. Background: BLI is a label-free optical method that tracks binding on a fibre tip over time.

B1: glutathione S-transferase-tagged Arabidopsis thaliana chalcone isomerase-like protein (AtCHIL) (natural protein)
chain: MVMVHEVPFPPQIITSKPLSLLGQGITDIEIHFLQVKFTAIGVYLDPSDVKTHLDNWKGKTGKELAGDDDFFDALASAEMEKVIRVVVIKEIKGAQYGVQLENTVRDRLAEEDKYEEEEETELEKVVGFFQSKYFKANSVITYHFSAKDGICEIGFETEGKEEEKLKVENANVVGMMQRWYLSGSRGVSPSTIVSIADSISAVLT
notes: chalcone isomerase-like protein AtCHIL, Arabidopsis thaliana; source: E. coli (pGEX4T-1)
The term koff denotes the rate constant with which the complex falls apart. By kon is commonly meant the rate constant with which the complex forms. With B1, in test [1], the Kd is 9.15 nM, the koff was found to be 0.00137 s⁻¹ and the kon came out at 150000 M⁻¹ s⁻¹.

B2: His6-tagged CHS of morning glory (enzyme)
chain: MVTVEEVRKAQRAEGPATILAIGTATPANCVDQSTYPDYYFRITNSDHMTDLKQKFQRMCDKSMITKRYMHLTEEILKENPSFCEYMAPSLDARQDIVVVEVPKLGKEAAQSAIKEWGQPKSKITHVIFCTTSGVDMPGADYQLTKLLGLRPSVKRLMMYQQGCFAGGTVLRVAKDLAENNKAARVLVVCSEITVVTFRGPNETHLDSLVGQALFGDGAAAIIVGSDPTPAEKPLFQLVSAAQTLAPDSCGAIDGHLREVGLTFHLLKDVPSIVSNNIEKCLSEAFNPLGISDWNSIFWIAHPGGPAILDQVEDKLGLKPEKLRATRHVLSEYGNMSSACVLFILDEMRKASSNDGLGTTGEGLEWGVLFGFGPGLTIETVVLHSVPA
Regarding B2, the Kd in test [2] is 1 nM.
